Reference: the nanobody polyreactivity screen of Harvey et al. (2022)

test: yeast display, Sf9 membrane polyspecificity reagent, FACS + sequencing; frameworks hold sequencing errors
How it was run: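 Galactose induction of a Saccharomyces cerevisiae BJ5465 synthetic nanobody display library ran 36–48 hours. The cells were then stained for 1 hour at 4 °C with 10% biotinylated, detergent-solubilized Sf9 membrane reagent, pulled down on streptavidin microbeads and FACS-sorted into low and high (top ~1%) gates on expression and reagent-binding fluorescence. Labels for polyreactivity follow the gate of origin.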

Row | Sequence | polyreactivity (PSR sort gate)
1 | QVQLVESGGGLVQAGGSLRLSCAASGSIFRRNAMGWYRQAPGKERELVAVITRSGGSTYYADSVKGRFTISRDNAKTTVDLQMNSLKPEDTAVYYCDASRSSTRSFDYWGQGTQVTVSS | high polyreactivity
2 | QVQLVESGGGLVQAGGSLRLSCAASGSTFKFNAMGWYRQAPGKETELVATITSRGSRTYYADSVKGRFTISRDNAKNTVYLQMNSLKPEDTAVYYCAARVFRPYGSLYDYWGQGTQVTVSS | high polyreactivity
3 | QVQLVESGGGLVQAGGRLRLSCAASGFTFKLYAMGWYRQAPGKERELVASISRSGGSTFYADSVKGRFTISRDTAKNTGYLQMNSLKPEDTAVYYCATGWYYSPYNYWGQGTQVTVSS | high polyreactivity
4 | QVQLVESGGGLVQAGGSLRLSCAASGFISYYYAMGWYRQAPGKEREFVAAITSSGGSTRYADSVKGRFSISRDNATNTVYLQMNSLKPEDTAVYYCAAGNPYFWPYDYWGQGTQVTVSS | low polyreactivity
5 | QVQLVESGGGLVQAGGSLRLSCAASGRTFYGYAMGWYRQAPGKERELVAAITQRSGSTYYADSVKGRFTISRDNAKNTVYLQMNSLKPEDTAVYYYNADKSQRVRRGDYWGQGTQVTVSS | high polyreactivity
6 | QVQLVESGGGLVQAGGSLRLSCAASGLTFYYYAMGWYRQAPGKERELVATISSGGGRTYADSVKGRFTISRDNAKNTVYLQMNSLKPEDTAVYYCAVRNTKSYWFGYWGQGTQVTVSS | high polyreactivity
7 | QVHLVESGGCLVQAGGSLRLSCAASGITFRWYAMGWYILAPGKERELVSSIDGRGASTYADSVKGRFTSSRDNAKNTVYLQMNSLKPEDSAVYYCAVAQVRVSYLWVRKFYYWGQGTQVTVSS | high polyreactivity
8 | QVQLLQTGGGLVQAGGSLRLSCAASGRIFVVNAMGWNRLAPGKEREMVADISSGVSTNYADSVKGRFTISRDNAKNTVYLQMNILKPEDTALYYCNSRFRFRYKFPSRNSWGQGTLVTVSS | high polyreactivity
9 | QVQLVESVGGLVQAVGSLRLSCAASGNTFYRYAMGWYIQAPGKERELVAAITWRSTYYADSVKGRFTISRDNAKNTVYLQMNSLKPEDTAVYYCAVSVRPYVIYLYDYWGQGTQVTVSS | high polyreactivity
10 | QVQLVESGGGLVQAGGSLRLSCAASGLTFGTYAMGWYRQAPGKERELVAAIRSGGSTNYADSVKGRFTISRDTAKNTVYLQMNILKPEDNAVYYCAKRYYWDRYYYWGQGTPVTVSS | high polyreactivity
11 | QVQLVESGGGLVQAGGSLRLSCAASGRIFSYTAMGWYRQAPGKERELVAAITRVDNTNYADSVKGRFTISRDNAKNTVYLQMNSLKPEDTAVYYCNARQHQVRWWLREFDYWGQGTQVTVSS | low polyreactivity
12 | QVQLVESGGGLVQAGGSLRLICAASGFIFWSNAMGWYRQAPGKEMELVAAITWNGGDTYYADSVKGRFTISRDNAKNTVYLQMNSLKPEDTAVYYCAAVHSRRARYDYWGQGTQVTVSS | low polyreactivity
13 | QVHLVESGGGLVQAGGILRLRSAASGSTVYGYAMGWYRQAPGKERELVAAITRSGGSTYYADSVKGRFTISRDNATNKVYLQMNSQKPEDTEFYYCNKYGYKGGDGYDYWGQRTQVTVSS | high polyreactivity
14 | QVQLVESGGGLVQAGGSLRLSSAASGRTFLRYAMGWYRQAPGKVRELVAAISWSGGRTYYADSVKGRFRISRDLAKNTVYLQMNSLKTEVTAVYYCNKGVLYGAHFYYWGQGTQVTGSS | high polyreactivity
15 | QVHLVESGGGLVQAGGSLRLSCAASGRIFADYAMGWYRHAPGKERELVAAISSTSSTNYADSVKGRFTISRDNAKNTVYLQMKSLKPEDTAVYYCAATAGSLTADYVSYTYNYWGQGTQVTVSS | low polyreactivity
16 | QVQLVESGGGLVQAGGSLRLSCAASGSTFDRNAMGWYRQAPGKERELVAAISRRGGRTYYADSVKGRFTISRDNAKNTVYLQMNSLKPEDTAVYYCAAGKITFPMDYWGQGTQVTVSS | high polyreactivity
17 | QVQLVESGGGLVQPGGSLRLSCAASGSIFTPNAMGWYRPAPGKERELVAAISSSSDRTYYADSVKGRFTISRDNAKNTVYLQMNSLKPEDTAVYYCAALSKTRGGYWGHGTQVTVSS | high polyreactivity
18 | QVQLVESGGGLVQAGGSLRLSCAASGRTFDRYAMGWARQAPGKERELVATISRSGGSTYYADSVKGRFTISRDNAKNTVYLQMNSLKPEDSAVYYCAARQRTTSDGWRDSWGQGTQVTVSS | high polyreactivity
19 | QVQLVESGGGLVQAGGSLRLSCAASGRIFLGNVMGWYRQAPGKERELVAAISSGGSTNYADSVKGRFTISRDNAKNTVYLQMNSLIPEDTAVYYCAAYFVRDWKLYYYWGQGTQVTVSS | low polyreactivity
20 | LVQLVESGGGLVQAGGSLRLICAASGITISYNAMGWYRQAPGKERELVAAITGSDGITYYADSVKGRFTISRDNAKNTVYLEMNSLKPEDTAVYYCAAEWWDYWYEYDYWGQGTQVTVSS | high polyreactivity
21 | QVQLVESGGGLVQAGGSLRLSCAASGRIFWVNVMGWYRQGPGKERELVAAITRGASTYADSVKGRFTISRDNAKNTVYLQLNSLKPEDTAVYYCAADSKRRSIRYDYWGQGTQVTVSS | high polyreactivity
22 | QVQLVESGGGLVQAGGSLRLSRAASGFTWSYAMGWYRQAPGKERELVATISDGVSTNYADSVKGRFTISRDNAKNTVYLQRNSLKPEDTAVYYCAAEIPRRWASFATLWYDYWGQGTQVTVSS | low polyreactivity

Row | Sequence | polyreactivity (PSR sort gate)
23 | QVQLVESGGGLVQAVSSLRLSCAASGYIFDRNAMGWYRRAPGKERELVAAITKRGGITYYADSVKGRFTISRDNAKNTVYLQMNSLKPEDTAVYYCAAKTLYNSGTQDRAMGYWGQGTQVTVSS | high polyreactivity
24 | QVQLVESGGGLVQAGGSLRLSCAASGFTLWYNGMGWYRQAPGKERELVATISSRGGGSTYYADSVKGRFTISRDNAKNTVYLQMNSLKPEETAVYYCAADAYYLVPTEGDYWGQGTQVTVSS | low polyreactivity
25 | QVQLVESGGGLVQAGGSLSLICADSGSSFYGYAMGWYRQAPGKERELVAAITSSGGSTYYADSVKGRFTISRDNAKNTVYLQMNSLKPEDTAVYYCAARGSLGGWGLRYYWGQGTQVTVSS | high polyreactivity
26 | QVQLVESGGGLVQAGGSIRLSCAASGYTFVTNAMGWYRPAPGKERELVAAITTVGSTNYADSGKGRFTISRDNAKNTVYLQMNSLKPEDTAVYYCNANWYEWYGWGQGTQVTVSS | low polyreactivity
27 | QVQLVESGGGLVQAGGSLRLSCAASGSTFDYNAMGWYRQAPGKEREFVAAISFSGSSTYYADSVKGRFTISRDNAKNTVYLQMNSLKPEDTAVYYCAKKVFASYRGYGYWGQGTQVTVSS | high polyreactivity
28 | QVQLVESGGGFFQAGGSLRLSCAASGSTFGYYTMGWYRQAPGKERELVAAISSGGSRTNYADSVKGRFTISRDNAKNTVYLQMNILKPEDTAVYYCARQSYGGTNRYYYWGQGTQVTVSS | high polyreactivity
29 | QVQLVESGGGLVQAGGSLRLSCAASGRIFRSNAMGWYRQAPRKERELVAVITTAGSTNYADSVKGRFTISRDNAKNTVYLQMNSLKQEDTAVYYCATENGTRKRRYDYWGQGTQVTVSS | low polyreactivity
30 | QVQLVESGGGLVQAGGSLRLSCAASGRIIRWYAMGWYRQAPGKERELVAAISGSGGSTYYADSVKGRFTISRDNAKNTVYLQMNSLKPEDTAVYYCAAAYYRDSDRRYNYWGQGTQVTVSS | high polyreactivity
31 | QVQLVESGGGLFQAGRSLRLICAASGRIFNQYPMGWSRQAPGKETELVAAIRRSSDSTYYADSVKGRFTISRDNAKNTVYLQMNSLTPEDSAVYYCATDGYRRWVWMEYWGQGTQVTVSS | low polyreactivity
32 | QVQLVESAGGLVQAGGSLRLSCAASGFSFYYNTMGWYRQAPGTEWELVASITWSGDTTYYADSVKGRFTISRDNAKNTVYLQMNSLKPEDTAVYYCAAVPYYPYRRYDYWGQGTQVTVAS | low polyreactivity
33 | QVQLVESAGGLVQAGGSLSLSCAASASTFSSNAMGGYRQAPGKERELVAAITTSGGSTYYADSVKGRFTISRDNAKNTVYLQMNSLIPEDTAVYYCAADLVHAYQWSIFLYGYWGLGTQVTVSS | low polyreactivity
34 | QVQLVESGGGLVQAGGSLRLSCAASGRIFLANAMGWSRQAPGKERELVAAISLSGGRTYYADSVKGRFTISRDNAKNTVYLQMNSLKPEDTAVYYCAAEFYPIRYYGGYDYWGQGTLVTVSS | low polyreactivity
35 | QVQLVESGGGLVQAGGSLRLSCDASGRIFNYYAMGWYRQAPGKERELVAAITWNGGNTYYADSVKGRFTISRDNAKNTVYLQMNSLKPEDTAVYYCNAYPWYPGDYWGQGTQVTVSS | high polyreactivity
36 | QVQLVESGGGLVQAGGSLRLSCAASGRIVFYAMGWYRQAPGKERELVAAITGSGGRTYYADSVKGRFTISRDNAKITVYLQMNSLKPEDTAVYYCAARKWRHGYQGDYWGQGTQVTVSS | high polyreactivity
37 | QVQLVESGVGLVQAGGRLLLSCAASRSIFTRYTMGWYSQAPGKEWELVATISSRGDGTFYADSVKGRFTISRDNAKNTFYLQMNSLKPEDTAVYYCAARYRRVHSGYGYWGQVTQVTVSS | high polyreactivity
38 | QVQLVESGGGLVQAGGSLRLSCAASGITFWDYAMGWYRQAPGTERELVAANSRSGGSTYYADSVKGRFTISRDNAKKTVYLQMNSLKPEDTAVYFCAAYTRRPIYDYWGQGTQVTVSS | high polyreactivity
39 | QVQLVESGGGLVQAGGSLRLSCAASGFTISYYAMGWYRQAPWKEGELVAAIRKSGATTDYADSVKGRFTISRDNAKNTVYLQMNCMKPEDTAVYYCNAKNDQRSLGFDFWRQGTQVTVSS | high polyreactivity
40 | QVQLVESGGGLVQAGGSLRLSCAASGRILSKNAMGWYRQAPGKERELVAAIRGSTGITYYADSVKGRFTISRDNAKNTVYLQMNSLKPEDTAVYYCAAVVQGGFYWGQGTQVTVSS | high polyreactivity
41 | QVQLVESGGGLVQAGGSLRLSCAASGSTFYYYTMGWYRQAPGKEREFVAAITRSGGSTYYADSVKGRFTISRDNSKNTVYFQMNSLKPEDTAVYYCNVDGTSSSPFVQKHKEMDYWGQGTQVTVSS | low polyreactivity
42 | QVQLVESGVGLVQAGGSLRLSCAASGGTFRPYAMGWYRHAPGKESELVAAISYTGSTYYADSVKGRFTISRDNAKNTVYLQMNSLKPVDTAVYYCAKDLWYPPRFDYWGQGTQVTVSS | low polyreactivity
43 | QVQLVESGGGLVQAGGSLRLSCAASGSISSGYFMGWYRQAPGKERELVAAISFSGGSTYYADSVKGRFTISRDNAKNTVYLQMNSLKPEDTAVYYCNALFWYRYFSGVSQDYDYWGQGTQVTVSS | high polyreactivity
